This note sets out measurements from publication PMC4935545 (Molecular cell, 2016).

Series [1] concerns the target mCLI-Mis18α (human) (UniProt Q9NYP9).
The target of series [2] is His-tagged Mis18α (human) (UniProt Q9NYP9). The experiment in a line: SEC + other: glycerol gradient sedimentation.
Series [3] addresses MBP-HJURP^R1 (human) (UniProt Q8NCD3). The experiment in a line: SEC + other: glycerol gradient sedimentation.
In series [4] the target is Strep-tagged Mis18β (human) (UniProt O43482). The experiment in a line: SEC + other: glycerol gradient sedimentation.
Chain of Strep-tagged Mis18β (human) (O43482 whole entry): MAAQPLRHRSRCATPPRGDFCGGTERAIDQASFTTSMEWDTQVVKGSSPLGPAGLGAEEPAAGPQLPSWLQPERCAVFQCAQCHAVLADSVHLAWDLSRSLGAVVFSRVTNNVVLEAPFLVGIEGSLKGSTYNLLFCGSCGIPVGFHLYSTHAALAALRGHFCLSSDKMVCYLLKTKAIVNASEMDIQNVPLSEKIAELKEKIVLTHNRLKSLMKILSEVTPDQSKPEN
The target in series [5] is MBP-HJURP^R1 (human) (UniProt Q8NCD3). The series is described as follows: pull-down.
Chain of MBP-HJURP^R1 (human) (Q8NCD3 348-555): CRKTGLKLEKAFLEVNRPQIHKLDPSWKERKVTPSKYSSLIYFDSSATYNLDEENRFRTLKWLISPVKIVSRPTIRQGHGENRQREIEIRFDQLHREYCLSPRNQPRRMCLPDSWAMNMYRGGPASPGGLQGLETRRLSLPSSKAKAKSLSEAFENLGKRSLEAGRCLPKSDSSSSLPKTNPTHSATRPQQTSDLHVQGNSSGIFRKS
Series [6] concerns the molecule itself. The experiment in a line: SEC + other: glycerol gradient sedimentation.

Chain of mCLI-Mis18α (human) (Q9NYP9 whole entry): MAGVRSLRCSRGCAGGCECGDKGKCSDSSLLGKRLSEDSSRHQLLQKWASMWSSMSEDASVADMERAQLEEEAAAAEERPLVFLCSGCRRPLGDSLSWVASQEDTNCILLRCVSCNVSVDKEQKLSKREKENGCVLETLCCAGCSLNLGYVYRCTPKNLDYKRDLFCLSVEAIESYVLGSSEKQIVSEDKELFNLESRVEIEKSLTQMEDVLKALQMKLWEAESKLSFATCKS

Take “GFP-Mis18β (from UniProt O43482 1-229) (natural protein)”: the percent of transfected cells with recruitment to the array in series [1] is 100%.

What is called stoichiometry N is a count of units in the complex or per binding partner. Consider “His-tagged Mis18α (from UniProt Q9NYP9 1-233) (natural protein)”, for which the stoichiometry N in series [2] came out at 2; in series [3], 1; in series [4] it was 1.

“Mis18α-β heterotetramer (preformed from recombinant Mis18α and Mis18β) (from UniProt Q9NYP9 1-233; O43482 1-229) (complex)” registered a fold binding against Mis18α or Mis18β alone in series [5] of 2 fold.

For “Strep-tagged Mis18β (from UniProt O43482 1-229) (natural protein)”, the values for the stoichiometry N in series [3] and in series [4] were 1 and 2, respectively.

B1: S. pombe Mis18 (recombinant) (natural protein, UniProt Q9P802 1-194, looked up)
chain: MSQTETSHSGYIDFKKESQPSVFQCKKCFQIVGDSNAWVISHREYLSFTLSDAVENSVRVEDTFKRSDDGLCVYSELSCTRCNEVIGKVYNSTPIYLDDIRDMYTFSMDKLQAYQLGNKTVNPEGLTRYQVDLEMREDIIKLKSFCLSLYEKFELHDETLRSVKETISSLKKPKIEGKEGKKEKARTYSKRTRK
With B1, the “stoichiometry N” value in series [6] came out at 4.
